Laboratory results taken from US20230357428A1.
Values joined by “and” are separate entries in the source; they are usually repeats but may differ in a detail not shown here. Equal entries are not always repeated.

Legend:
[1] = target: mix of HLA-A*02/SimPep tetramers (peptides SEQ ID NO: 51 to 59); assay: yeast display, flow cytometry; 10 nM PRAME-004 monomer (x), SimPep tetramer mix 10 nM each (y)
[2] = target: mix of HLA-A*02/SimPep tetramers (peptides SEQ ID NO: 51 to 59); assay: yeast display, SimPep tetramer mix, 10 nM each

B1: stabilized scTCR R11P3D3SD (TCR)
chain: ILNVEQSPQSLHVQEGDSTNFTCSFPSSNFYNLHWYRKETAKSPEFLFYMTSNGDEKKKGRISATLNTKEGYSYLYITDSQPEDSATYLCALYNNNDMRFGAGTRLTVKPGGGGSGGGGSGGGGSGGGGSGGGGSGVIQSPRHLVTEMGQEVTLRCKPISGHNSLFWYRETPMQGLELLIYFNNNEPIDDSGMPEDRFSAKMPNASFSTLKIQPSEPRDSAVYFCASSPGSTDTQYFGPGTRLTVL
[1]
  % cells, upper left quadrant (monomer-, SimPep tetramers+): 3%
  % cells, upper right quadrant (monomer+, SimPep tetramers+): 0.8%
[2]
  yeast cells stained positive: 3.3% and 2.5%
